Ends that are not written are not given here. * marks the point of attachment. Biotin = O=C1N[C@H]2[C@H](CS[C@H]2CCCCC(=O)*)N1
Target: GST-TIAM1 PDZ domain fusion protein (T-lymphoma invasion and metastasis inducing protein 1 AA1001-1088); PDZ 1 … (UniProt P08515 1-218 = GST)
Test: A/G assays

Sequence of GST-TIAM1 PDZ domain fusion protein (T-lymphoma invasion and metastasis inducing protein 1 AA1001-1088); PDZ 1 … (P08515 1-218, tags or fused parts left off): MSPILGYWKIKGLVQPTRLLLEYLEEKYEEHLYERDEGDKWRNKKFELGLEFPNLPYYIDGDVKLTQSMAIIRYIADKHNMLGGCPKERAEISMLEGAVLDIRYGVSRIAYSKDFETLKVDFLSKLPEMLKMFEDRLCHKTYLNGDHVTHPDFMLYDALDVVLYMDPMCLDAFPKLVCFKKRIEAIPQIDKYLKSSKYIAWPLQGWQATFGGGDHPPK

Binder	binding result
Biotin-KKGTYLTDETHREVKFTSL [CD46 (form 1) C-terminal PL peptide AA10L, biotinylated]	no binding
Biotin-SPQPDSTDNDDYDDISAA [CD6 C-terminal PL peptide AA6L, biotinylated]	no binding

Target: GST-LIMK2 PDZ domain fusion protein (human LIM domain kinase 2 AA185-275; PDZ domain 1 of 1) (human, UniProt P08515 1-218 = GST)
Test: A/G assays

Sequence of GST-LIMK2 PDZ domain fusion protein (human LIM domain kinase 2 AA185-275; PDZ domain 1 of 1) (P08515 1-218, tags or fused parts left off): as above

Binder	binding result
Biotin-KKGTYLTDETHREVKFTSL [CD46 (form 1) C-terminal PL peptide AA10L, biotinylated]	no binding
Biotin-SPQPDSTDNDDYDDISAA [CD6 C-terminal PL peptide AA6L, biotinylated]	no binding

Target: T1, GST-TAX43 PDZ domain fusion protein (human tax interaction protein 43 AA15-85; PDZ domain 1 of 1) (human, UniProt P08515 1-218 = GST)
T1 construct: also called TX 43
Test: A/G assays

T1 sequence (P08515 1-218, tags or fused parts left off): as above

Binder	binding result
Biotin-KKGTYLTDETHREVKFTSL [CD46 (form 1) C-terminal PL peptide AA10L, biotinylated]	no binding
Biotin-SPQPDSTDNDDYDDISAA [CD6 C-terminal PL peptide AA6L, biotinylated]	no binding

Target: GST-MPP1 PDZ domain fusion protein (55 Kd erythrocyte membrane protein AA101-186; PDZ domain 1 of 1) (UniProt P08515 1-218 = GST)
Test: A/G assays

Sequence of GST-MPP1 PDZ domain fusion protein (55 Kd erythrocyte membrane protein AA101-186; PDZ domain 1 of 1) (P08515 1-218, tags or fused parts left off): as above

Binder	binding result
Biotin-KKGTYLTDETHREVKFTSL [CD46 (form 1) C-terminal PL peptide AA10L, biotinylated]	no binding
Biotin-SPQPDSTDNDDYDDISAA [CD6 C-terminal PL peptide AA6L, biotinylated]	no binding

Target: T2, GST-RGS12 PDZ domain fusion protein (human regulator of G-protein signalling 12 AA35-103; PDZ domain 1 of 1) (human, UniProt P08515 1-218 = GST)
T2 construct: also called RSG12
Test: A/G assays

T2 sequence (P08515 1-218, tags or fused parts left off): as above

Binder	binding result
Biotin-KKGTYLTDETHREVKFTSL [CD46 (form 1) C-terminal PL peptide AA10L, biotinylated]	no binding
Biotin-SPQPDSTDNDDYDDISAA [CD6 C-terminal PL peptide AA6L, biotinylated]	no binding

Target: GST-LIM PDZ domain fusion protein (Human LIM protein AA29-112; PDZ domain 1 of 1) (human, UniProt P08515 1-218 = GST)
Test: A/G assays

Sequence of GST-LIM PDZ domain fusion protein (Human LIM protein AA29-112; PDZ domain 1 of 1) (P08515 1-218, tags or fused parts left off): as above

Binder	binding result
Biotin-KKGTYLTDETHREVKFTSL [CD46 (form 1) C-terminal PL peptide AA10L, biotinylated]	no binding
Biotin-SPQPDSTDNDDYDDISAA [CD6 C-terminal PL peptide AA6L, biotinylated]	no binding

Target: T3, GST-CBP PDZ domain fusion protein (Cytohesin binding protein HE AA85-175; PDZ domain 1 of 1) (UniProt P08515 1-218 = GST)
T3 construct: also called Prot
Test: A/G assays

T3 sequence (P08515 1-218, tags or fused parts left off): as above

Binder	binding result
Biotin-KKGTYLTDETHREVKFTSL [CD46 (form 1) C-terminal PL peptide AA10L, biotinylated]	no binding
Biotin-SPQPDSTDNDDYDDISAA [CD6 C-terminal PL peptide AA6L, biotinylated]	no binding

Target: T4, GST-TAX40 PDZ domain fusion protein (human tax interaction protein 40 AA35-137; PDZ domain 1 of 1) (human, UniProt P08515 1-218 = GST)
T4 construct: also called TX 40
Test: A/G assays

T4 sequence (P08515 1-218, tags or fused parts left off): as above

Binder	binding result
Biotin-KKGTYLTDETHREVKFTSL [CD46 (form 1) C-terminal PL peptide AA10L, biotinylated]	no binding
Biotin-SPQPDSTDNDDYDDISAA [CD6 C-terminal PL peptide AA6L, biotinylated]	no binding

Target: T5, GST-PSD95 PDZ domain fusion protein (human post-synaptic density protein 95 AA387-724; PDZ domains 1-3 of 3) (human, UniProt P08515 1-218 = GST)
Test: A/G assays

T5 sequence (P08515 1-218, tags or fused parts left off): as above

Binder	binding result
Biotin-SPQPDSTDNDDYDDISAA [CD6 C-terminal PL peptide AA6L, biotinylated]	no binding

Target: T6, GST-CASK PDZ domain fusion protein (CASK AA495-584; PDZ domain 1 of 1) (mouse, UniProt P08515 1-218 = GST)
T6 construct: also called mCASK
Test: A/G assays

Binder	binding result
Biotin-KKGTYLTDETHREVKFTSL [CD46 (form 1) C-terminal PL peptide AA10L, biotinylated]	no binding
Biotin-SPQPDSTDNDDYDDISAA [CD6 C-terminal PL peptide AA6L, biotinylated]	no binding

Target: T7, GST-TAX33 PDZ domain fusion protein (tax interaction protein 33 AA73-162; PDZ domain 1 of 1) (UniProt P08515 1-218 = GST)
T7 construct: also called TX33
Test: A/G assays

T7 sequence (P08515 1-218, tags or fused parts left off): as above

Binder	binding result
Biotin-KKGTYLTDETHREVKFTSL [CD46 (form 1) C-terminal PL peptide AA10L, biotinylated]	no binding
Biotin-SPQPDSTDNDDYDDISAA [CD6 C-terminal PL peptide AA6L, biotinylated]	no binding

Target: GST-prIL16 PDZ domain fusion protein (putative interleukin 16 precursor AA170-383; PDZ domains 1-2 of 2) (UniProt P08515 1-218 = GST)
Test: A/G assays

Binder	binding result
Biotin-KKGTYLTDETHREVKFTSL [CD46 (form 1) C-terminal PL peptide AA10L, biotinylated]	no binding
Biotin-SPQPDSTDNDDYDDISAA [CD6 C-terminal PL peptide AA6L, biotinylated]	no binding

Target: T8, GST-NeDLG PDZ domain fusion protein (presynaptic protein sao102, neuroendocrine-dlg; PDZ domains 1-2 of 3) (UniProt P08515 1-218 = GST)
T8 construct: also called NeDLG1
Test: A/G assays

T8 sequence (P08515 1-218, tags or fused parts left off): as above

Binder	binding result
Biotin-SPQPDSTDNDDYDDISAA [CD6 C-terminal PL peptide AA6L, biotinylated]	no binding

Target: GST-NOS1 PDZ domain fusion protein (human neuronal nitric oxide synthase; PDZ domain 1 of 1) (human, UniProt P08515 1-218 = GST)
Test: A/G assays

Sequence of GST-NOS1 PDZ domain fusion protein (human neuronal nitric oxide synthase; PDZ domain 1 of 1) (P08515 1-218, tags or fused parts left off): as above

Binder	binding result
Biotin-KKGTYLTDETHREVKFTSL [CD46 (form 1) C-terminal PL peptide AA10L, biotinylated]	no binding
Biotin-SPQPDSTDNDDYDDISAA [CD6 C-terminal PL peptide AA6L, biotinylated]	no binding

Target: T9, GST-KIAA0303 PDZ domain fusion protein (KIAA0303 AA652-742; PDZ domain 1 of 1) (UniProt P08515 1-218 = GST)
T9 construct: also called K303
Test: A/G assays

T9 sequence (P08515 1-218, tags or fused parts left off): as above

Binder	binding result
Biotin-KKGTYLTDETHREVKFTSL [CD46 (form 1) C-terminal PL peptide AA10L, biotinylated]	no binding
Biotin-SPQPDSTDNDDYDDISAA [CD6 C-terminal PL peptide AA6L, biotinylated]	no binding

Target: T10, GST-KIAA0316 PDZ domain fusion protein (KIAA0316 AA197-284; PDZ domain 1 of 1) (UniProt P08515 1-218 = GST)
T10 construct: also called K316
Test: A/G assays

T10 sequence (P08515 1-218, tags or fused parts left off): as above

Binder	binding result
Biotin-KKGTYLTDETHREVKFTSL [CD46 (form 1) C-terminal PL peptide AA10L, biotinylated]	no binding
Biotin-SPQPDSTDNDDYDDISAA [CD6 C-terminal PL peptide AA6L, biotinylated]	no binding

Target: T11, GST-SYN1a PDZ domain fusion protein (alpha1-syntrophin AA96-189; PDZ domain 1 of 1) (UniProt P08515 1-218 = GST)
T11 construct: also called SYN 1 alpha; SYNTR 1 alpha
Test: A/G assays

T11 sequence (P08515 1-218, tags or fused parts left off): as above

Binder	binding result
Biotin-KKGTYLTDETHREVKFTSL [CD46 (form 1) C-terminal PL peptide AA10L, biotinylated]	no binding
Biotin-SPQPDSTDNDDYDDISAA [CD6 C-terminal PL peptide AA6L, biotinylated]	no binding

Target: T12, GST-KIAA0559 PDZ domain fusion protein (KIAA0559 AA766-870; PDZ1 of 1) (UniProt P08515 1-218 = GST)
T12 construct: also called K559
Test: A/G assays

T12 sequence (P08515 1-218, tags or fused parts left off): as above

Binder	binding result
Biotin-KKGTYLTDETHREVKFTSL [CD46 (form 1) C-terminal PL peptide AA10L, biotinylated]	no binding
Biotin-SPQPDSTDNDDYDDISAA [CD6 C-terminal PL peptide AA6L, biotinylated]	no binding

Target: T13, GST-41.8 kD PDZ domain fusion protein (hypothetical 41.8 kD protein AA4-85; PDZ domain 1 of 1) (UniProt P08515 1-218 = GST)
T13 construct: also called hypoth
Test: A/G assays

T13 sequence (P08515 1-218, tags or fused parts left off): as above

Binder	binding result
Biotin-KKGTYLTDETHREVKFTSL [CD46 (form 1) C-terminal PL peptide AA10L, biotinylated]	no binding

Target: GST-PTN-4 PDZ domain fusion protein (protein-tyrosine phosphatase meg1 AA774-862; PDZ domain 1 of 1) (UniProt P08515 1-218 = GST)
Test: A/G assays

Sequence of GST-PTN-4 PDZ domain fusion protein (protein-tyrosine phosphatase meg1 AA774-862; PDZ domain 1 of 1) (P08515 1-218, tags or fused parts left off): as above

Binder	binding result
Biotin-KKGTYLTDETHREVKFTSL [CD46 (form 1) C-terminal PL peptide AA10L, biotinylated]	no binding
Biotin-SPQPDSTDNDDYDDISAA [CD6 C-terminal PL peptide AA6L, biotinylated]	no binding

Target: GST-AF6 PDZ domain fusion protein (af-6 protein AA985-1077; PDZ domain 1 of 1) (UniProt P08515 1-218 = GST)
Test: A/G assays

Binder	binding result
Biotin-KKGTYLTDETHREVKFTSL [CD46 (form 1) C-terminal PL peptide AA10L, biotinylated]	no binding
Biotin-SPQPDSTDNDDYDDISAA [CD6 C-terminal PL peptide AA6L, biotinylated]	no binding

Target: GST-MINT3 PDZ domain fusion protein (human MINT3 AA11-52; PDZ domain 1 of 1) (human, UniProt P08515 1-218 = GST)
Test: A/G assays

Sequence of GST-MINT3 PDZ domain fusion protein (human MINT3 AA11-52; PDZ domain 1 of 1) (P08515 1-218, tags or fused parts left off): as above

Binder	binding result
Biotin-KKGTYLTDETHREVKFTSL [CD46 (form 1) C-terminal PL peptide AA10L, biotinylated]	no binding
Biotin-SPQPDSTDNDDYDDISAA [CD6 C-terminal PL peptide AA6L, biotinylated]	no binding

Target: GST-DVL1 PDZ domain fusion protein (human dishevelled segment polarity protein homolog AA248-340); PDZ domain … (human, UniProt P08515 1-218 = GST)
Test: A/G assays

Sequence of GST-DVL1 PDZ domain fusion protein (human dishevelled segment polarity protein homolog AA248-340); PDZ domain … (P08515 1-218, tags or fused parts left off): as above

Binder	binding result
Biotin-KKGTYLTDETHREVKFTSL [CD46 (form 1) C-terminal PL peptide AA10L, biotinylated]	no binding
Biotin-SPQPDSTDNDDYDDISAA [CD6 C-terminal PL peptide AA6L, biotinylated]	no binding

Target: T14, GST-TAX2 PDZ domain fusion protein (human tax interaction protein 2 AA54-140; PDZ domain 1 of 1) (human, UniProt P08515 1-218 = GST)
T14 construct: also called TX 2
Test: A/G assays

T14 sequence (P08515 1-218, tags or fused parts left off): as above

Binder	binding result
Biotin-KKGTYLTDETHREVKFTSL [CD46 (form 1) C-terminal PL peptide AA10L, biotinylated]	no binding
Biotin-SPQPDSTDNDDYDDISAA [CD6 C-terminal PL peptide AA6L, biotinylated]	no binding

Target: T15, GST-MPP2 PDZ domain fusion protein (maguk p55 subfamily member 2 (DLG2) AA185-273; PDZ domain 1 of 1) (UniProt P08515 1-218 = GST)
T15 construct: also called MMP2
Test: A/G assays

Binder	binding result
Biotin-KKGTYLTDETHREVKFTSL [CD46 (form 1) C-terminal PL peptide AA10L, biotinylated]	no binding
Biotin-SPQPDSTDNDDYDDISAA [CD6 C-terminal PL peptide AA6L, biotinylated]	no binding

Target: T13, GST-41.8 kD PDZ domain fusion protein …
Test: A assay

Binder	binding result
Biotin-SPQPDSTDNDDYDDISAA [CD6 C-terminal PL peptide AA6L, biotinylated]	binds

Target: T8, GST-NeDLG PDZ domain fusion protein …
Test: G assay

Binder	binding result
Biotin-KKGTYLTDETHREVKFTSL [CD46 (form 1) C-terminal PL peptide AA10L, biotinylated]	binds

Target: T5, GST-PSD95 PDZ domain fusion protein …
Test: A and G assays

Binder	binding result
Biotin-KKGTYLTDETHREVKFTSL [CD46 (form 1) C-terminal PL peptide AA10L, biotinylated]	binds
